The target in series [1] is T1, N protein (unphosphorylated, lambda-phosphatase treated) (SARS-CoV-2 (isolate Wuhan-Hu-1), UniProt P0DTC9 1-419). Kind of series: MST; apparent; Hill nH = 1.7 +/- 0.4. As to conditions: protein: recombinant; tags: His6-MBP tag cleaved (3C); linker remnant possible; chain copies: 2; stem loop.
The next series addresses cGAS (human, UniProt Q8N884 1-522).
Series [2] addresses T1, N protein (unphosphorylated, …). The series can be described thus: MST; apparent; Hill nH = 1.6 +/- 0.1. Conditions: protein: recombinant; tags: His6-MBP tag cleaved (3C); linker remnant possible; chain copies: 2; label: Cy5 at 5' end of forward strand; blunt.
Another series has as its target biotin-AviTag-cGASCD (human, UniProt Q8N884 158-522). Kind of series: BLI; N protein first adds signal, then accelerates dissociation. As to conditions: protein: recombinant; tags: AviTag, biotinylated; blunt. For orientation: BLI is a label-free optical method that tracks binding on a fibre tip over time.

Take GAUCUCUUGUAGAUCUGUUCUCUAAACGAACUUUAAAAUCUGUGUGGCUG (ssRNA) [50-nt RNA-Cy5]: the Kd in series [1] was 3 ± 0.4 nM.

B1: 50-bp DNA-Cy5 (dsDNA)
DNA 1: GATCTCTTGTAGATCTGTTCTCTAAACGAACTTTAAAATCTGTGTGGCTG
DNA 2: CAGCCACACAGATTTTAAAGTTCGTTTAGAGAACAGATCTACAAGAGATC
Turning to B1, the binding result with cGAS is reported as “binds”. Also, the Kd in series [2] is 6.3 ± 0.3 nM.

B2: 50-bp DNA (label-free) (dsDNA)
DNA 1: B1 DNA 1
DNA 2: B1 DNA 2
Take B2: the binding result with cGAS was “binds”.

B3: 45-bp DNA (ISD) (dsDNA)
DNA 1: TACAGATCTACTAGTGATCTATGACTGATCTGTACATGATCTACA
DNA 2: TGTAGATCATGTACAGATCAGTCATAGATCACTAGTAGATCTGTA
Regarding B3, the binding result with biotin-AviTag-cGASCD is listed as “binds”.

Values taken from PMC12232725.
